How the values were obtained:
[1] = biological target: Yeast cytochrome c peroxidase C128A with MSKT as the first four N-terminal residues (yeast) (UniProt P00431); assay: paramagnetic relaxation enhancement NMR; intermolecular PRE: 200 uM [15N,2H] CcP WT (C128A) with 200 uM unlabelled MTSL- or MTS-tagged N38C, N200C or T288C CcP; 20 mM NaPi, 100 mM NaCl, pH 6.0, 293 K; fraction bound and KD estimated from PRE-driven ensemble docking with an assumed correlation time of 45 ns
[2] = biological target: cytochrome c peroxidase (Saccharomyces cerevisiae) (UniProt P00431); conditions: cited from earlier work

Sequence of cytochrome c (P00044 2-109): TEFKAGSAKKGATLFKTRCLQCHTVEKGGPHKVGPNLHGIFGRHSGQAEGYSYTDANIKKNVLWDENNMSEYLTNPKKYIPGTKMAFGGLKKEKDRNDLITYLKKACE

Yeast cytochrome c peroxidase C128A N38C tagged with MTSL (or diamagnetic MTS) at C38 (from UniProt P00431 71-361) (enzyme)
Kd [1]: 360 µM
fraction bound [1]: 0.4

Yeast cytochrome c peroxidase C128A N200C tagged with MTSL (or diamagnetic MTS) at C200 (from UniProt P00431 71-361) (enzyme)
Kd [1]: 360 µM
fraction bound [1]: 0.4

Yeast cytochrome c peroxidase C128A T288C tagged with MTSL (or diamagnetic MTS) at C288 (from UniProt P00431 71-361) (enzyme)
Kd [1]: 360 µM
fraction bound [1]: 0.4

cytochrome c (from UniProt P00044)
Kd [2]: 5 µM

Reference: PMC4908164
